Consider eight molecules from publication PMC7367873, “Dissecting the sequence determinants for dephosphorylation by the catalytic subunits of phosphatases PP1 and PP2A” (Nature Communications, 2020).

One assay concerns GFP-14-3-3β. Description: GFP-14-3-3β co-IP with LC-MS/MS, untreated GFP-14-3-3β versus GFP control (14-3-3 interactome). In kind it is binding, human.
Assay [1] deals with GFP-14-3-3β and its binding proteins. Description: GFP-14-3-3β co-IP with LC-MS/MS label-free quantification, untreated versus PP1c-treated. The arrangement: species or system human.
The mark [2] stands for this setting: untreated vs GFP, LFQ intensities, replicates 1-3.
The mark [3] stands for this setting: PP1 vs untreated, LFQ intensities, replicates 1-3.

B1: RALGPS2 (protein, UniProt Q86X27 1-583, looked up)
Ras-specific guanine …: MDLMNGQASSVNIAATASEKSSSSESLSDKGSELKKSFDAVVFDVLKVTPEEYAGQITLMDVPVFKAIQPDELSSCGWNKKEKYSSAPNAVAFTRRFNHVSFWVVREILHAQTLKIRAEVLSHYIKTAKKLYELNNLHALMAVVSGLQSAPIFRLTKTWALLSRKDKTTFEKLEYVMSKEDNYKRLRDYISSLKMTPCIPYLGIYLSDLTYIDSAYPSTGSILENEQRSNLMNNILRIISDLQQSCEYDIPMLPHVQKYLNSVQYIEELQKFVEDDNYKLSLKIEPGTSTPRSAASREDLVGPEVGASPQSGRKSVAAEGALLPQTPPSPRNLIPHGHRKCHSLGYNFIHKMNTAEFKSATFPNAGPRHLLDDSVMEPHAPSRGQAESSTLSSGISIGSSDGSELSEETSWPAFERNRLYHSLGPVTRVARNGYRSHMKASSSAESEDLAVHLYPGAVTIQGVLRRKTLLKEGKKPTVASWTKYWAALCGTQLFYYAAKSLKATERKHFKSTSNKNVSVIGWMVMMADDPEHPDLFLLTDSEKGNSYKFQAGNRMNAMLWFKHLSAACQSNKQQVPTNLMTFE
B1: the “Difference (log2), untreated vs GFP” value in the assay on GFP-14-3-3β (setting [2]) is 6.032 log2. Moreover, in assay [1] (setting [3]), the “Difference (log2), PP1 vs untreated” value is reported as -1.125 log2.

B2: SERPINH1 (protein, UniProt P50454 19-418, looked up)
Serpin H1: AEVKKPAAAAAPGTAEKLSPKAATLAERSAGLAFSLYQAMAKDQAVENILVSPVVVASSLGLVSLGGKATTASQAKAVLSAEQLRDEEVHAGLGELLRSLSNSTARNVTWKLGSRLYGPSSVSFADDFVRSSKQHYNCEHSKINFRDKRSALQSINEWAAQTTDGKLPEVTKDVERTDGALLVNAMFFKPHWDEKFHHKMVDNRGFMVTRSYTVGVMMMHRTGLYNYYDDEKEKLQIVEMPLAHKLSSLIILMPHHVEPLERLEKLLTKEQLKIWMGKMQKKAVAISLPKGVVEVTHDLQKHLAGLGLTEAIDKNKADLSRMSGKKDLYLASVFHATAFELDTDGNPFDQDIYGREELRSPKLFYADHPFIFLVRDTQSGSLLFIGRLVRPKGDKMRDEL
As for B2, the “Difference (log2), untreated vs GFP” value with GFP-14-3-3β (setting [2]) is on record as -0.8949 log2. Besides, the “Difference (log2), PP1 vs untreated” value in assay [1] (setting [3]) was -1.158 log2.

B3: HNRNPA2B1 (protein, UniProt P22626 1-353, looked up)
Heterogeneous nuclear …: MEKTLETVPLERKKREKEQFRKLFIGGLSFETTEESLRNYYEQWGKLTDCVVMRDPASKRSRGFGFVTFSSMAEVDAAMAARPHSIDGRVVEPKRAVAREESGKPGAHVTVKKLFVGGIKEDTEEHHLRDYFEEYGKIDTIEIITDRQSGKKRGFGFVTFDDHDPVDKIVLQKYHTINGHNAEVRKALSRQEMQEVQSSRSGRGGNFGFGDSRGGGGNFGPGPGSNFRGGSDGYGSGRGFGDGYNGYGGGPGGGNFGGSPGYGGGRGGYGGGGPGYGNQGGGYGGGYDNYGGGNYGSGNYNDFGNYNQQPSNYGPMKSGNFGGSRNMGGPYGGGNYGPGGSGGSGGYGGRSRY
With B3, the “Difference (log2), untreated vs GFP” value with GFP-14-3-3β (setting [2]) is listed as 1.703 log2. Further, in assay [1] (setting [3]), the “Difference (log2), PP1 vs untreated” value is -1.185 log2.

B4: GTF3C3 (protein, UniProt Q9Y5Q9 2-886, looked up)
General transcription factor …: SGFSPELIDYLEGKISFEEFERRREERKTREKKSLQEKGKLSAEENPDDSEVPSSSGINSTKSQDKDVNEGETSDGVRKSVHKVFASMLGENEDDEEEEEEEEEEEEEEETPEQPTAGDVFVLEMVLNRETKKMMKEKRPRSKLPRALRGLMGEANIRFARGEREEAILMCMEIIRQAPLAYEPFSTLAMIYEDQGDMEKSLQFELIAAHLNPSDTEEWVRLAEMSLEQDNIKQAIFCYTKALKYEPTNVRYLWERSSLYEQMGDHKMAMDGYRRILNLLSPSDGERFMQLARDMAKSYYEANDVTSAINIIDEAFSKHQGLVSMEDVNIAAELYISNKQYDKALEIITDFSGIVLEKKTSEEGTSEENKAPENVTCTIPDGVPIDITVKLMVCLVHLNILEPLNPLLTTLVEQNPEDMGDLYLDVAEAFLDVGEYNSALPLLSALVCSERYNLAVVWLRHAECLKALGYMERAAESYGKVVDLAPLHLDARISLSTLQQQLGQPEKALEALEPMYDPDTLAQDANAAQQELKLLLHRSTLLFSQGKMYGYVDTLLTMLAMLLKVAMNRAQVCLISSSKSGERHLYLIKVSRDKISDSNDQESANCDAKAIFAVLTSVLTKDDWWNLLLKAIYSLCDLSRFQEAELLVDSSLEYYSFYDDRQKRKELEYFGLSAAILDKNFRKAYNYIRIMVMENVNKPQLWNIFNQVTMHSQDVRHHRFCLRLMLKNPENHALCVLNGHNAFVSGSFKHALGQYVQAFRTHPDEPLYSFCIGLTFIHMASQKYVLRRHALIVQGFSFLNRYLSLRGPCQESFYNLGRGLHQLGLIHLAIHYYQKALELPPLVVEGIELDQLDLRRDIAYNLSLIYQSSGNTGMAQTLLYTYCSI
In the case of B4, in the assay with GFP-14-3-3β (setting [2]), the “Difference (log2), untreated vs GFP” value was 0.6927 log2. The “Difference (log2), PP1 vs untreated” value in assay [1] (setting [3]) was -1.189 log2.

B5: HNRNPL (protein, UniProt P14866 1-589, looked up)
Heterogeneous nuclear …: MSRRLLPRAEKRRRRLEQRQQPDEQRRRSGAMVKMAAAGGGGGGGRYYGGGSEGGRAPKRLKTDNAGDQHGGGGGGGGGAGAAGGGGGGENYDDPHKTPASPVVHIRGLIDGVVEADLVEALQEFGPISYVVVMPKKRQALVEFEDVLGACNAVNYAADNQIYIAGHPAFVNYSTSQKISRPGDSDDSRSVNSVLLFTILNPIYSITTDVLYTICNPCGPVQRIVIFRKNGVQAMVEFDSVQSAQRAKASLNGADIYSGCCTLKIEYAKPTRLNVFKNDQDTWDYTNPNLSGQGDPGSNPNKRQRQPPLLGDHPAEYGGPHGGYHSHYHDEGYGPPPPHYEGRRMGPPVGGHRRGPSRYGPQYGHPPPPPPPPEYGPHADSPVLMVYGLDQSKMNCDRVFNVFCLYGNVEKVKFMKSKPGAAMVEMADGYAVDRAITHLNNNFMFGQKLNVCVSKQPAIMPGQSYGLEDGSCSYKDFSESRNNRFSTPEQAAKNRIQHPSNVLHFFNAPLEVTEENFFEICDELGVKRPSSVKVFSGKSERSSSGLLEWESKSDALETLGFLNHYQMKNPNGPYPYTLKLCFSTAQHAS
With B5, the “Difference (log2), untreated vs GFP” value in the assay on GFP-14-3-3β (setting [2]) is on record as 0.7735 log2. In assay [1] (setting [3]), the “Difference (log2), PP1 vs untreated” value was -1.243 log2.

B6: SF3B1 (protein, UniProt O75533 1-1304, looked up)
Splicing factor 3B subunit 1: MAKIAKTHEDIEAQIREIQGKKAALDEAQGVGLDSTGYYDQEIYGGSDSRFAGYVTSIAATELEDDDDDYSSSTSLLGQKKPGYHAPVALLNDIPQSTEQYDPFAEHRPPKIADREDEYKKHRRTMIISPERLDPFADGGKTPDPKMNARTYMDVMREQHLTKEEREIRQQLAEKAKAGELKVVNGAAASQPPSKRKRRWDQTADQTPGATPKKLSSWDQAETPGHTPSLRWDETPGRAKGSETPGATPGSKIWDPTPSHTPAGAATPGRGDTPGHATPGHGGATSSARKNRWDETPKTERDTPGHGSGWAETPRTDRGGDSIGETPTPGASKRKSRWDETPASQMGGSTPVLTPGKTPIGTPAMNMATPTPGHIMSMTPEQLQAWRWEREIDERNRPLSDEELDAMFPEGYKVLPPPAGYVPIRTPARKLTATPTPLGGMTGFHMQTEDRTMKSVNDQPSGNLPFLKPDDIQYFDKLLVDVDESTLSPEEQKERKIMKLLLKIKNGTPPMRKAALRQITDKAREFGAGPLFNQILPLLMSPTLEDQERHLLVKVIDRILYKLDDLVRPYVHKILVVIEPLLIDEDYYARVEGREIISNLAKAAGLATMISTMRPDIDNMDEYVRNTTARAFAVVASALGIPSLLPFLKAVCKSKKSWQARHTGIKIVQQIAILMGCAILPHLRSLVEIIEHGLVDEQQKVRTISALAIAALAEAATPYGIESFDSVLKPLWKGIRQHRGKGLAAFLKAIGYLIPLMDAEYANYYTREVMLILIREFQSPDEEMKKIVLKVVKQCCGTDGVEANYIKTEILPPFFKHFWQHRMALDRRNYRQLVDTTVELANKVGAAEIISRIVDDLKDEAEQYRKMVMETIEKIMGNLGAADIDHKLEEQLIDGILYAFQEQTTEDSVMLNGFGTVVNALGKRVKPYLPQICGTVLWRLNNKSAKVRQQAADLISRTAVVMKTCQEEKLMGHLGVVLYEYLGEEYPEVLGSILGALKAIVNVIGMHKMTPPIKDLLPRLTPILKNRHEKVQENCIDLVGRIADRGAEYVSAREWMRICFELLELLKAHKKAIRRATVNTFGYIAKAIGPHDVLATLLNNLKVQERQNRVCTTVAIAIVAETCSPFTVLPALMNEYRVPELNVQNGVLKSLSFLFEYIGEMGKDYIYAVTPLLEDALMDRDLVHRQTASAVVQHMSLGVYGFGCEDSLNHLLNYVWPNVFETSPHVIQAVMGALEGLRVAIGPCRMLQYCLQGLFHPARKVRDVYWKIYNSIYIGSQDALIAHYPRIYNDDKNTYIRYELDYIL
As to B6, the “Difference (log2), untreated vs GFP” value in the assay on GFP-14-3-3β (setting [2]) worked out at 2.403 log2. In assay [1] (setting [3]), the “Difference (log2), PP1 vs untreated” value is given as -1.121 log2.

B7: ATP5A1 (protein, UniProt P25705 44-553, looked up)
ATP synthase F(1) complex …: QKTGTAEMSSILEERILGADTSVDLEETGRVLSIGDGIARVHGLRNVQAEEMVEFSSGLKGMSLNLEPDNVGVVVFGNDKLIKEGDIVKRTGAIVDVPVGEELLGRVVDALGNAIDGKGPIGSKTRRRVGLKAPGIIPRISVREPMQTGIKAVDSLVPIGRGQRELIIGDRQTGKTSIAIDTIINQKRFNDGSDEKKKLYCIYVAIGQKRSTVAQLVKRLTDADAMKYTIVVSATASDAAPLQYLAPYSGCSMGEYFRDNGKHALIIYDDLSKQAVAYRQMSLLLRRPPGREAYPGDVFYLHSRLLERAAKMNDAFGGGSLTALPVIETQAGDVSAYIPTNVISITDGQIFLETELFYKGIRPAINVGLSVSRVGSAAQTRAMKQVAGTMKLELAQYREVAAFAQFGSDLDAATQQLLSRGVRLTELLKQGQYSPMAIEEQVAVIYAGVRGYLDKLEPSKITKFENAFLSHVVSQHQALLGTIRADGKISEQSDAKLKEIVTNFLAGFEA
For B7, in the assay with GFP-14-3-3β (log2 difference, pairwise comparison untreated vs GFP, label-free quantification, 3 replicates each), the “Difference (log2), untreated vs GFP” value is -0.3409. The “Difference (log2), PP1 vs untreated” value in assay [1] (log2 difference, pairwise comparison PP1 vs untreated, label-free quantification, 3 replicates each) was 1.626.

B8: EWSR1 (protein, UniProt Q01844 1-656, looked up)
RNA-binding protein EWS: MASTDYSTYSQAAAQQGYSAYTAQPTQGYAQTTQAYGQQSYGTYGQPTDVSYTQAQTTATYGQTAYATSYGQPPTGYTTPTAPQAYSQPVQGYGTGAYDTTTATVTTTQASYAAQSAYGTQPAYPAYGQQPAATAPTRPQDGNKPTETSQPQSSTGGYNQPSLGYGQSNYSYPQVPGSYPMQPVTAPPSYPPTSYSSTQPTSYDQSSYSQQNTYGQPSSYGQQSSYGQQSSYGQQPPTSYPPQTGSYSQAPSQYSQQSSSYGQQSSFRQDHPSSMGVYGQESGGFSGPGENRSMSGPDNRGRGRGGFDRGGMSRGGRGGGRGGMGSAGERGGFNKPGGPMDEGPDLDLGPPVDPDEDSDNSAIYVQGLNDSVTLDDLADFFKQCGVVKMNKRTGQPMIHIYLDKETGKPKGDATVSYEDPPTAKAAVEWFDGKDFQGSKLKVSLARKKPPMNSMRGGLPPREGRGMPPPLRGGPGGPGGPGGPMGRMGGRGGDRGGFPPRGPRGSRGNPSGGGNVQHRAGDWQCPNPGCGNQNFAWRTECNQCKAPKPEGFLPPPFPPPGGDRGRGGPGGMRGGRGGLMDRGGPGGMFRGGRGGDRGGFRGGRGMDRGGFGGGRRGGPGGPPGPLMEQMGGRRGGRGGPGKMDKGEHRQERRDRPY
As to B8, the “Difference (log2), untreated vs GFP” value with GFP-14-3-3β (setting [2]) is 2.021 log2. Also, the “Difference (log2), PP1 vs untreated” value in assay [1] (setting [3]) is recorded as -1.1218 log2.
